Where a SMILES comes first, the peptide text is derived from it. Where no end group is shown, it is not given here. [ ]: non-standard residue; d: D form. His(π-Me) = Cn1cncc1C[C@H](N)C(=O)O; NMeT = CN[C@H](C(=O)O)[C@@H](C)O; Cha = N[C@@H](CC1CCCCC1)C(=O)O
Biological target: T1, human GABA receptor (subunits α1β3γ2) (Homo sapiens, UniProt P14867+P28472)
T1 construct: expressed in transfected cells; host or cells: HEK293
Assay: manual whole-cell patch-clamp of GABA receptor-mediated Cl− current in HEK293 cells
Type: cell-based
Settings: for Activity: human α1β3γ2 GABAA receptor, electrophysiological recordings; for potentiation of human GABA receptor-mediated Cl− current: receptor expressed in HEK293 cells, manual whole-cell patch-clamp
Procedure: All the compounds of the present invention were tested and validated using electrophysiological recordings on the human GABAA receptor comprising of the following subunits α1β3γ2.
The peptides of the present invention are capable of activating, inhibiting or modulating the GABAA receptor. These peptides were derived in-silico and tested in-vitro in cell cultures. […] The human GABA receptor (subunits α1β3γ2) used in these experiments was expressed in HEK293 cells in manual whole-cell patch-clamp settings.

T1 sequence (P14867 28-456): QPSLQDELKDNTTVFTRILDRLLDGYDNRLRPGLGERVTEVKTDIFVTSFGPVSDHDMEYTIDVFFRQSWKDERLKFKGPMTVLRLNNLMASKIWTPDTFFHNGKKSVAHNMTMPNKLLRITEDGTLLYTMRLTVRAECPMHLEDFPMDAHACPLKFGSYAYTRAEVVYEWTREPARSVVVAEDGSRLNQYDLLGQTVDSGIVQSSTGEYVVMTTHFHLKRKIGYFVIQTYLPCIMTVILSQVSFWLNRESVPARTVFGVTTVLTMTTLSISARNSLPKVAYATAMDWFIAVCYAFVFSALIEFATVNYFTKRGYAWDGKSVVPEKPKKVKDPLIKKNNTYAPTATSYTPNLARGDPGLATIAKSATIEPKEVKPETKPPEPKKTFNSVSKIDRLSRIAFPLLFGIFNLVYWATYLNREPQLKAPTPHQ
T1 sequence (P28472 26-473): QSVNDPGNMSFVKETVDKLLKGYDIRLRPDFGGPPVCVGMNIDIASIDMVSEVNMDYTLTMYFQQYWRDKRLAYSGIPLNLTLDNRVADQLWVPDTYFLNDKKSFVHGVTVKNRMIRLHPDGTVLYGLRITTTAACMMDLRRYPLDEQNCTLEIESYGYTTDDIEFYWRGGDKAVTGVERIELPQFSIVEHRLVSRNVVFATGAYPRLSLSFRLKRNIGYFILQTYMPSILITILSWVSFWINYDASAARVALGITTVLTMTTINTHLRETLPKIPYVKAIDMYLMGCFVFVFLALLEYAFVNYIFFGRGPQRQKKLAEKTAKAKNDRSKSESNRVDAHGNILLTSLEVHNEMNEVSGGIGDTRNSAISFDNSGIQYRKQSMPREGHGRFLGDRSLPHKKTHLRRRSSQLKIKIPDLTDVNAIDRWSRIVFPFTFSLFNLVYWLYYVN
T1 sequence (P18507 40-475 partner): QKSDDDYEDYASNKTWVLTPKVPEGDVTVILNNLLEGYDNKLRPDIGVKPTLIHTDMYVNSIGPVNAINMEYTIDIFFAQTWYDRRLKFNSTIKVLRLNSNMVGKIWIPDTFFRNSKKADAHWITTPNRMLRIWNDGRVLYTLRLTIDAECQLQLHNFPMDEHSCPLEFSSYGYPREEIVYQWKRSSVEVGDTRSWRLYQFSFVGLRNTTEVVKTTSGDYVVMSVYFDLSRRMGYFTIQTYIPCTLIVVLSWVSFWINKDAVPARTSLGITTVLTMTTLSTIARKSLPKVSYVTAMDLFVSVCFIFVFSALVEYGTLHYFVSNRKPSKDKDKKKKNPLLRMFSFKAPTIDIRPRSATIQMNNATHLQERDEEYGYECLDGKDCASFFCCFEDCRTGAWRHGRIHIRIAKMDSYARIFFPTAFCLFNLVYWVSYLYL

Row | Compound | Activity | potentiation of human GABA receptor-mediated Cl− current
1 | His—Thr—Trp—Tyr—Glu (HTWYE; printed: His—Thr—Trp—Tyr—Glu) [SEQ ID NO:7] | Positive allosteric modulator | selective potentiation
2 | His—Pro—Pro—Ala—Thr (HPPAT; printed: His—Pro—Pro—Ala—Thr) [SEQ ID NO:8] | Positive allosteric modulator | selective potentiation
3 | Thr—Glu—Ser—Lys—Gly—NH2 (TESKG-NH2) [SEQ ID NO:11] | Positive allosteric modulator | selective potentiation
4 | C[C@@H](O)[C@@H](C(=O)N[C@@H](Cc1c[nH]c2ccccc12)C(=O)N[C@@H](CCC(N)=O)C(=O)N[C@H](C=O)CCC(=O)O)N(C)C(=O)[C@@H](N)Cc1cncn1C [SEQ ID NO:3, (3-methyl-L-histidine)-(N-methyl-threonine)-WQE] (H-[His(π-Me)][NMeT]WQE-aldehyde) | Positive allosteric modulator | selective potentiation
5 | His—Ile—Ser—NH2 [SEQ ID NO:9] | Positive allosteric modulator | selective potentiation
6 | Arg—Phe—His—Ser (RFHS; printed: Arg—Phe—His—Ser) [SEQ ID NO:10] | Positive allosteric modulator | selective potentiation
7 | His—Thr—Trp—Gln—Glu (HTWQE; printed: His—Thr—Trp—Gln—Glu) [SEQ ID NO:1] | Positive allosteric modulator | selective potentiation
8 | His—Pro—Trp—Gln (HPWQ; printed: His—Pro—Trp—Gln) [SEQ ID NO:15] | Positive allosteric modulator | selective potentiation
9 | Arg—Thr—Trp—Gly—Glu (RTWGE; printed: Arg—Thr—Trp—Gly—Glu) [SEQ ID NO:13] | – | selective potentiation
10 | C[C@@H](O)[C@@H](C(=O)N[C@H](Cc1c[nH]c2ccccc12)C(=O)N[C@@H](CCC(N)=O)C(=O)N[C@H](C=O)CCC(=O)O)N(C)C(=O)[C@@H](N)Cc1cncn1C [SEQ ID NO:4, (3-methyl-L-histidine)-(N-methyl-threonine)-(N-methyl-tryptophan)-QE] (H-[His(π-Me)][NMeT][dW]QE-aldehyde) | Positive allosteric modulator | selective potentiation
11 | C[C@@H](O)[C@H](NC(=O)[C@@H](N)CC1CCCCC1)C(=O)N[C@@H](Cc1c[nH]c2ccccc12)C(=O)N[C@@H](CCC(N)=O)C(=O)N[C@H](C=O)CCC(=O)O [SEQ ID NO:2, (L-cyclohexyl-alanine)- TWQE] (H-[Cha]TWQE-aldehyde) | Positive allosteric modulator | selective potentiation
12 | His—Thr—Thr—Gly—Asp (HTTGD; printed: His—Thr—Thr—Gly—Asp) [SEQ ID NO:12] | Positive allosteric modulator | selective potentiation
13 | His—Thr—Trp—Pro (HTWP; printed: His—Thr—Trp—Pro) [SEQ ID NO:14] | Positive allosteric modulator | selective potentiation
14 | His—Thr—Trp—Lys—Lys (HTWKK; printed: His—Thr—Trp—Lys—Lys) [SEQ ID NO:6] | Positive allosteric modulator | selective potentiation
